According to ChEMBL document CHEMBL1133169, “A light-inactivated antibiotic” (2000):

Substrate: CC(=O)OCC1=C(C(=O)O)N2C(=O)[C@@H](NC(=O)[C@@H](Cc3ccccc3)NNC(=O)OCc3ccccc3[N+](=O)[O-])C2SC1
Test: The turnover kinetic parameter (Km) evaluated for Class A TEM-1 beta-lactamase

B1: Beta-lactamase TEM (Escherichia coli), P62593 (protein)
chain: MSIQHFRVALIPFFAAFCLPVFAHPETLVKVKDAEDQLGARVGYIELDLNSGKILESFRPEERFPMMSTFKVLLCGAVLSRVDAGQEQLGRRIHYSQNDLVEYSPVTEKHLTDGMTVRELCSAAITMSDNTAANLLLTTIGGPKELTAFLHNMGDHVTRLDRWEPELNEAIPNDERDTTMPAAMATTLRKLLTGELLTLASRQQLIDWMEADKVAGPLLRSALPAGWFIADKSGAGERGSRGIIAALGPDGKPSRIVVIYTTGSQATMDERNRQIAEIGASLIKHW
B1 gave a Km of 80 µM.
